Source: publication PMC10448171, “Photocycle alteration and increased enzymatic activity in genetically modified photoactivated adenylate cyclase OaPAC” (The Journal of Biological Chemistry, 2023)

Substrate: Nc1ncnc2c1ncn2[C@@H]1O[C@H](COP(=O)(O)OP(=O)(O)OP(=O)(O)O)[C@@H](O)[C@H]1O
Test: EnzChek pyrophosphate coupled assay, A360, Michaelis-Menten fit
Type: biochemical, Oxynema acuminatum
Conditions: continuous illumination; 0-500 μM ATP; 1 μM enzyme
Source text: EnzChek pyrophosphate coupled assay, A360, Michaelis-Menten fit on OaPAC

Protein | Km | Vmax | kcat
OaPAC (Oxynema acuminatum PCC 6304; D67N) (protein, full-length, 366 residues, homodimer; N-terminal BLUF domain and C-terminal class III AC domain; pCold-I (Ni-NTA purified), E. coli BL21(DE3); Superdex 200) MKRLTYISKFSRPLSGDEIEAIGRISSQKNQQANVTGVLLCLDGIFFQILEGEAEKIDRIYERILANERHTDILCLKSEVEVQERMFPDWSMQTINLDENTDFLIRPIKVLLQTLTESHRILEKYTQPSIFKIISQGTNPLNIRPKAVEKIVFFSDIVSFSTFAEKLPVEEVVSVVNSYFSVCTAIITRQGGEVTKFIGDCVMAYFDGDCADQAIQASLDILMELEILRNSAPEGSPLRVLYSGIGLAKGKVIEGNIGSELKRDYTILGDAVNVAARLEALTRQLSQALVFSSEVKNSATKSWNFIWLTDSELKGKSESIDIYSIDNEMTRKSSGGLEIARNIGHYLERVGDRQPSQIFGVKSLPL | 41 ± 5 µM | 0.100 ± 0.002 mM/min | 0.8342 s⁻¹
OaPAC (Oxynema acuminatum PCC 6304) (protein, full-length, 366 residues, homodimer; N-terminal BLUF domain and C-terminal class III AC domain; pCold-I (Ni-NTA purified), E. coli BL21(DE3); Superdex 200) MKRLTYISKFSRPLSGDEIEAIGRISSQKNQQANVTGVLLCLDGIFFQILEGEAEKIDRIYERILADERHTDILCLKSEVEVQERMFPDWSMQTINLDENTDFLIRPIKVLLQTLTESHRILEKYTQPSIFKIISQGTNPLNIRPKAVEKIVFFSDIVSFSTFAEKLPVEEVVSVVNSYFSVCTAIITRQGGEVTKFIGDCVMAYFDGDCADQAIQASLDILMELEILRNSAPEGSPLRVLYSGIGLAKGKVIEGNIGSELKRDYTILGDAVNVAARLEALTRQLSQALVFSSEVKNSATKSWNFIWLTDSELKGKSESIDIYSIDNEMTRKSSGGLEIARNIGHYLERVGDRQPSQIFGVKSLPL | 31 ± 1 µM | 0.064 ± 0.007 mM/min | 0.537 s⁻¹
